We go through three variants from FireProtDB (doi:10.1021/bi00369a002).

“And” between values parts separate entries of the source, which are not always exact repeats. Equal values may be shown once.

B1: Tryptophan synthase alpha chain, P0A877 (parent)
chain: MERYESLFAQLKERKEGAFVPFVTLGDPGIEQSLKIIDTLIEAGADALELGIPFSDPLADGPTIQNATLRAFAAGVTPAQCFEMLALIRQKHPTIPIGLLMYANLVFNKGIDEFYAQCEKVGVDSVLVADVPVEESAPFRQAALRHNVAPIFICPPNADDDLLRQIASYGRGYTYLLSRAGVTGAENRAALPLNHLVAKLKEYNAAPPLQGFGISAPDQVKAAIDAGAAGAISGSAIVKIIEQHINEPEKMLAALKVFVQPMKAATRS

Variants of B1 are the subject of the series. Particulars: Escherichia coli (strain K12); pH 7.8; 25 °C; Urea; Absorbance; Potassium phosphate 10 mM; transition: 3; structure 1WQ5; whole UniProt chain shown.

With Y175C G211E, the “ddG of mutation (higher = less stable)” value is 1.3 kcal/mol and 1 kcal/mol; the denaturant m value is 3 kcal/mol/M and 1.4 kcal/mol/M; the “denaturant midpoint (higher = more stable)” value (from here on “denaturant midpoint”) is 2.2 M and 3.49 M.

With Y175C, the denaturant m value is 3 kcal/mol/M and 1.1 kcal/mol/M; the “denaturant midpoint” value was 2.58 M and 3.71 M.

In the case of G211E, the denaturant m value is 3 kcal/mol/M and 1.5 kcal/mol/M; the “denaturant midpoint” value is 2.73 M and 3.72 M.
